According to the supplement of paper PMC9112550, “Optimization of the antimicrobial peptide Bac7 by deep mutational scanning” (BMC Biology, 2022):

System: Escherichia coli TOP10
Assay: shrunken log2 fold change of peptide-encoding DNA abundance (4.5 h post-induction vs induction); higher = less antimicrobial activity (less host growth inhibition)
Settings: time post-induction: 4.5 h; library: site-saturation at positions 5, 18, 19, 20
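Note: peptides expressed intracellularly from a pBAD plasmid library in pooled LB shake-flask culture, induced with 0.3% L-arabinose, DNA abundance read by NGS, three biological replicates, DESeq2 with apeglm shrinkage.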

Sequence	shrunken log2 fold change
RRIRVRPPRLPRPRPRPEIEPRP	0.173
RRIRGRPPRLPRPRPRPHEGPRP	0.403
RRIRLRPPRLPRPRPRPMYSPRP	-0.364
RRIRFRPPRLPRPRPRPACNPRP	-0.26
RRIRNRPPRLPRPRPRPNYQPRP	-0.599
RRIRCRPPRLPRPRPRPAFPPRP	0.16
RRIRERPPRLPRPRPRPSFDPRP	-0.417
RRIRFRPPRLPRPRPRPSEGPRP	0.0716
RRIRGRPPRLPRPRPRPCHLPRP	-0.0648
RRIRVRPPRLPRPRPRPAFHPRP	-0.208
RRIRPRPPRLPRPRPRPISLPRP	-0.427
RRIRWRPPRLPRPRPRPDFLPRP	-0.221
RRIRTRPPRLPRPRPRPEQLPRP	0.117
RRIRARPPRLPRPRPRPIDRPRP	-0.027
RRIRVRPPRLPRPRPRPKINPRP	-0.18
RRIRYRPPRLPRPRPRPCSNPRP	-0.00822
RRIRMRPPRLPRPRPRPMFCPRP	-0.0875
RRIRIRPPRLPRPRPRPLIMPRP	-0.853
RRIRHRPPRLPRPRPRPRRTPRP	0.0506
RRIRKRPPRLPRPRPRPYNEPRP	-0.254
RRIRPRPPRLPRPRPRPYVNPRP	-1.34
RRIRGRPPRLPRPRPRPNRFPRP	0.282
RRIRKRPPRLPRPRPRPCCMPRP	0.103
RRIRVRPPRLPRPRPRPDNVPRP	0.171
RRIRVRPPRLPRPRPRPSVRPRP	-0.297

Sequence	shrunken log2 fold change
RRIRPRPPRLPRPRPRPMICPRP	-0.172
RRIRLRPPRLPRPRPRPWHVPRP	-0.121
RRIRQRPPRLPRPRPRPCILPRP	-0.458
RRIRRRPPRLPRPRPRPKCLPRP	0.144
RRIRQRPPRLPRPRPRPVFVPRP	-0.0727
RRIRWRPPRLPRPRPRPHASPRP	0.134
RRIRKRPPRLPRPRPRPYPNPRP	0.0382
RRIRWRPPRLPRPRPRPPLFPRP	0.42
RRIRERPPRLPRPRPRPICAPRP	0.0742
RRIRWRPPRLPRPRPRPLFVPRP	-0.076
RRIRIRPPRLPRPRPRPECFPRP	0.042
RRIRHRPPRLPRPRPRPHAQPRP	0.0272
RRIRGRPPRLPRPRPRPWLLPRP	0.216
RRIRGRPPRLPRPRPRPDLCPRP	0.445
RRIRWRPPRLPRPRPRPIYTPRP	-0.412
RRIRYRPPRLPRPRPRPGVNPRP	-3.04
RRIRLRPPRLPRPRPRPSPCPRP	-0.252
RRIRLRPPRLPRPRPRPTDLPRP	-0.0813
RRIRNRPPRLPRPRPRPKQCPRP	-0.293
RRIRTRPPRLPRPRPRPEKKPRP	0.0368
RRIRVRPPRLPRPRPRPCKGPRP	-0.117
RRIRARPPRLPRPRPRPVTFPRP	0.0573
RRIRQRPPRLPRPRPRPMLIPRP	-0.221
RRIRSRPPRLPRPRPRPCWRPRP	0.106
RRIRKRPPRLPRPRPRPKHMPRP	0.03

Sequence	shrunken log2 fold change
RRIRYRPPRLPRPRPRPLALPRP	-0.816
RRIRWRPPRLPRPRPRPHYIPRP	-0.468
RRIRFRPPRLPRPRPRPHCQPRP	-0.125
RRIRQRPPRLPRPRPRPPRMPRP	0.442
RRIRSRPPRLPRPRPRPQYNPRP	-0.863
RRIRDRPPRLPRPRPRPCTTPRP	-0.00176
RRIRSRPPRLPRPRPRPPCWPRP	0.29
RRIRARPPRLPRPRPRPLPPPRP	0.805
RRIRTRPPRLPRPRPRPILTPRP	-0.139
RRIRARPPRLPRPRPRPDGAPRP	0.673
RRIRKRPPRLPRPRPRPMQLPRP	0.197
RRIRFRPPRLPRPRPRPFGCPRP	-0.0616
RRIRSRPPRLPRPRPRPQRIPRP	-0.322
RRIRNRPPRLPRPRPRPWMFPRP	-0.182
RRIRYRPPRLPRPRPRPHCDPRP	-0.0698
RRIRWRPPRLPRPRPRPMFSPRP	-0.0364
RRIRSRPPRLPRPRPRPKHVPRP	-0.183
RRIRDRPPRLPRPRPRPMDDPRP	-0.000946
RRIRHRPPRLPRPRPRPCNWPRP	-0.0331
RRIRSRPPRLPRPRPRPQQVPRP	0.0131
RRIRRRPPRLPRPRPRPPHPPRP	0.886
RRIRPRPPRLPRPRPRPCCSPRP	-0.556
RRIRERPPRLPRPRPRPWYYPRP	0.0432
RRIRERPPRLPRPRPRPCVTPRP	-0.322
RRIRTRPPRLPRPRPRPWYLPRP	-0.0692

Sequence	shrunken log2 fold change
RRIRQRPPRLPRPRPRPKTRPRP	0.247
RRIRNRPPRLPRPRPRPSSEPRP	-0.214
RRIRPRPPRLPRPRPRPDAYPRP	-0.334
RRIRHRPPRLPRPRPRPSMFPRP	-0.163
RRIRFRPPRLPRPRPRPPIDPRP	0.113
RRIRHRPPRLPRPRPRPTVDPRP	-0.0548
RRIRWRPPRLPRPRPRPGNPPRP	-0.139
RRIRMRPPRLPRPRPRPASTPRP	0.323
RRIRVRPPRLPRPRPRPNIQPRP	-0.121
RRIRNRPPRLPRPRPRPCLGPRP	-0.219
RRIRLRPPRLPRPRPRPPSEPRP	0.321
RRIRFRPPRLPRPRPRPGEHPRP	-0.0294
RRIRARPPRLPRPRPRPFHVPRP	0.00498
RRIRNRPPRLPRPRPRPSDQPRP	0.0574
RRIRFRPPRLPRPRPRPDCSPRP	0.0229
RRIRARPPRLPRPRPRPGEMPRP	0.228
RRIRKRPPRLPRPRPRPSETPRP	0.0356
RRIRVRPPRLPRPRPRPRIEPRP	0.314
RRIRNRPPRLPRPRPRPACLPRP	0.146
RRIRRRPPRLPRPRPRPWCAPRP	0.419
RRIRYRPPRLPRPRPRPDFHPRP	-0.695
RRIRWRPPRLPRPRPRPDCHPRP	-0.346
RRIRIRPPRLPRPRPRPDCGPRP	0.0585
RRIRERPPRLPRPRPRPRDPPRP	0.0576
RRIRNRPPRLPRPRPRPRYCPRP	-0.0932

Sequence	shrunken log2 fold change
RRIRHRPPRLPRPRPRPMIHPRP	-0.382
RRIRYRPPRLPRPRPRPDMAPRP	-0.255
RRIRVRPPRLPRPRPRPRGIPRP	0.235
RRIRKRPPRLPRPRPRPFTEPRP	0.0246
RRIRNRPPRLPRPRPRPEELPRP	0.678
RRIRWRPPRLPRPRPRPQESPRP	0.00801
RRIRNRPPRLPRPRPRPCLRPRP	-0.0159
RRIRDRPPRLPRPRPRPAHQPRP	0.516
RRIRGRPPRLPRPRPRPYSVPRP	0.0284
RRIRDRPPRLPRPRPRPVLDPRP	-0.0729
RRIRWRPPRLPRPRPRPHYDPRP	-0.0735
RRIRNRPPRLPRPRPRPRDGPRP	0.292
RRIRKRPPRLPRPRPRPKCYPRP	-0.0561
RRIRVRPPRLPRPRPRPEDFPRP	0.0252
RRIRNRPPRLPRPRPRPWKAPRP	-0.0227
RRIRCRPPRLPRPRPRPPKSPRP	0.772
RRIRDRPPRLPRPRPRPDTFPRP	-0.0268
RRIRNRPPRLPRPRPRPDTIPRP	-0.145
RRIRPRPPRLPRPRPRPFDKPRP	-0.0386
RRIRYRPPRLPRPRPRPESQPRP	-0.0411
RRIRIRPPRLPRPRPRPQCLPRP	-0.47
RRIRSRPPRLPRPRPRPIRQPRP	-0.0752
RRIRFRPPRLPRPRPRPPQWPRP	0.384
RRIRVRPPRLPRPRPRPNHGPRP	-0.0115
RRIRLRPPRLPRPRPRPYDSPRP	0.00122
